Results: publication PMC3507513 (Molecular cell, 2010)

B1: HET-S(1–227), B2ACC7 1-227 (domain or fragment)
chain: MSEPFEIVAGALGVAGLFNNCVACFEYVQLGRHFGRDYERCQLRLDIAKVRLSRWGEAVQINDDPRFHSSAPIDKSVQLAKSIVEEILLLFESAQKTSKRYELVADQQDLVVFEDKDMKPIGRALHRRLKDLVSRRQKQTSLAKKTAWALYDGKSLEKIVDQVAGFVDELEKAFPIEAVCHKLAENEIEEVEDEASLTILKDAAGGIDAAMSDAAAQKIDAIVGRNS
B2: HET-s(1–227) (domain or fragment, Podospora anserina, UniProt Q03689 1-227, looked up)
chain: MSEPFGIVAGALNVAGLFNNCVDCFEYVQLGRPFGRDYERCQLRLDIAKARLSRWGEAVKINDDPRFHSDAPTDKSVQLAKSIVEEILLLFESAQKTSKRYELVADQQDLVVFEDKDMKPIGRALHRRLNDLVSRRQKQTSLAKKTAWALYDGKSLEKIVDQVARFVDELEKAFPIEAVCHKLAEIEIEEVEDEASLTILKDAAGGIDAAMSDAAAQKIDAIVGRNS

Columns and labels:
[1] = molecular target: T1, HET-S(1–227) (Podospora anserina), B2ACC7; assay: […]; details: remark: other sources report otherwise
T1 chain: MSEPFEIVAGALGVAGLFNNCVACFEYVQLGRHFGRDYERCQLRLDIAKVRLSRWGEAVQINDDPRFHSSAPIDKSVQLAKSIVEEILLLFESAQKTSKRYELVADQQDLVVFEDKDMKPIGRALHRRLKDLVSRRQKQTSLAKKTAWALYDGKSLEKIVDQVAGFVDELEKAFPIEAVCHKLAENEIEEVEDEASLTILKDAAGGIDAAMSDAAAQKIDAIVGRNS

[2] = molecular target: T1, HET-S(1–227) (Podospora anserina), …; assay: NMR titration; details: remark: other sources report otherwise
NMR titration = molecular target: the molecule itself; assay: NMR titration

Binder	stoichiometry N [1]	Kd [2]	Kd (NMR titration)
B1	2	78 µM	
B2			320 ± 37 µM
